To fix the notation:
B1: humanized 2H7 variant v511 (antibody, human IgG1, kappa, V domains shown)
VH: EVQLVESGGGLVQPGGSLRLSCAASGYTFTSYNMHWVRQAPGKGLEWVGAIYPGNGATSYNQKFKGRFTISVDKSKNTLYLQMNSLRAEDTAVYYCARVVYYSYRYWYFDVWGQGTLVTVSS
VL: DIQMTQSPSSLSASVGDRVTITCRASSSVSYLHWYQQKPGKAPKPLIYAPSNLASGVPSRFSGSGSGTDFTLTISSLQPEDFATYYCQQWAFNPPTFGQGTKVEIKR
notes: also called 2H7.v511
B2: humanized anti-CD20 antibody 2H7.v16 (antibody, human IgG1, kappa)
heavy: not shown
light: DIQMTQSPSSLSASVGDRVTITCRASSSVSYMHWYQQKPGKAPKPLIYAPSNLASGVPSRFSGSGSGTDFTLTISSLQPEDFATYYCQQWSFNPPTFGQGTKVEIKRTVAAPSVFIFPPSDEQLKSGTASVVCLLNNFYPREAKVQWKVDNALQSGNSQESVTEQDSKDSTYSLSSTLTLSKADYEKHKVYACEVTHQGLSSPVTKSFNRGEC
notes: Human IgG1, expressed in 293 cells; also called humanized anti-CD20 IgG; humanized 2H7
B3: anti-idiotypic antibody 8A3 (antibody, V domains shown)
VH: QVQLQQSGAELAKPGASVKMSCKASGYNFTTYWMHWVKQRPGQGLEWIGYINPSTDYTEYNQKFKYKATLTADKSSSTAYIQLSSLTSEDSAVYYCARWWDYDWYFDVWGAGTPLTVSS
VL: DIVMTQSQEFMSTSVGDRVSVTCKASQTVDTNVAWYQQKLGQSPKPLIYSASYRCSGVPDRFTGSGSRTDFTLTITNVQSEDLAEYFCQQYHSFPWTFGGGTKVEIKR
notes: Murine monoclonal antibody raised against 2H7.v16; It was biotinylated when used as detection antibody and unlabeled when coated; also called MAb 8A3; 8A3-bio

Assay [1] concerns the target B3. The experiment in a line: sandwich ELISA in mouse serum, 8C5 coat + 2H7 + 8A3-bio; the signal needs binding to both 8C5 and 8A3. For orientation: An ELISA detects its analyte on a solid surface through an enzyme-linked reagent.
Assay [2] addresses B3. As to the kind of experiment: ELISA, plate coated with 8A3, serially diluted antibody, detection with goat anti-human IgG Fc-HRP.
In assay [3] the target is B2. As to the kind of experiment: ELISA, 8A3 coated on plate, anti-human IgG Fc-HRP detection.
The target in assay [4] is T1, humanized anti-CD20 antibody 2H7.v31.
T1 construct: The L chain is the same as for 2H7.v16
Described as above.

Assay [5] has as its target B1. As to the kind of experiment: sandwich ELISA, 8C5 coat, biotinylated 8A3 detection, mouse serum.

The results in this text go back to patent publication US20070015228A1 (Genentech, published 2007).

Turning to B1, in assay [1], the binding result is listed as “binds”.

With B2, the binding result in assay [2] is given as “binds”. For B3, the binding result in assay [3], in assay [4] and in assay [5] was “binds” in each case.
